In US10287317B2, “Proprotein convertase subtilisin kexin type 9 (PCSK9) allosteric binding ligands to modulate serum low density lipoprotein (LDL) levels” (SRX Cardio, LLC, priority 2013, dated 2019):
One block for each molecule: values may come before it. *1 amine or outer side, *2 acyl side, *3 side chain or, on linkers, in order; H or OH if unused. Where a SMILES comes first, the peptide text is derived from it. Where no end group is shown, it is not given here. [ ]: non-standard residue; d: D form. The star is where a group is joined. Asp(NHCH2Ph) = Asp side-chain benzylamide, O=C(C[C@H](N[*:1])C(=O)[*:2])NCc1ccccc1; hCha = N[C@@H](CCC1CCCCC1)C(=O)O; hPhe = N[C@@H](CCc1ccccc1)C(=O)O; pS = N[C@@H](COP(=O)(O)O)C(=O)O; Bn = c1ccc(C*)cc1

Tests used:
PCSK9-WT protein [1] = target: T1, PCSK9-WT protein (Homo sapiens, UniProt Q8NBP7); test: Cellular diI-LDL uptake in HuH7 cells with PCSK9-WT; type: cell-based; settings: HuH7, 1.0 μg/ml PCSK9-WT, 100 uM peptide (FIG. 2)
T1 construct: V5
T1 sequence (Q8NBP7 153-692): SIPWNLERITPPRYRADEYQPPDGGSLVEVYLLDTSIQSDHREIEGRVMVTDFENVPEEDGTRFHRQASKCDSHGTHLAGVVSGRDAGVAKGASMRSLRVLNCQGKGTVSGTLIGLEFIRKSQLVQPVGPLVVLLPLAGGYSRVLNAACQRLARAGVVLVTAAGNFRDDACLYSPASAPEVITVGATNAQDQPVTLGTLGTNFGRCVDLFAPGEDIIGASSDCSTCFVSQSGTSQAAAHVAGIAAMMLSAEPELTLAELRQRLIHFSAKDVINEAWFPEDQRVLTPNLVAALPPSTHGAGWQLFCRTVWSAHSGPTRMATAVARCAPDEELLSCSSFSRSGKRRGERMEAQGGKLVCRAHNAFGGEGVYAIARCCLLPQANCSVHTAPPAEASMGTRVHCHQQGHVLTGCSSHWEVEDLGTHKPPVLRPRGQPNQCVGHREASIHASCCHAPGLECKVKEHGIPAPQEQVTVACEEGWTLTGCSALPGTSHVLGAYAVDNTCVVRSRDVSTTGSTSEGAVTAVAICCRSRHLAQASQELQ
Description: (§1) HuH7 cells were incubated in a 96-well plate for a total of 20 h in the absence (Cnt) or presence of 1.0 μg/ml PCSK9-WT protein alone (WT) or mixed with 100 uM of various SRX peptides. After 16 h, dil-LDL (5 ug/ml) was added to the incubation mixtures. After 4 h, fluorescence was measured (Ex: 520 nm/Em: 575 nm; cutoff: 550 nm). Dil-LDL uptake is calculated as RFU corrected for the number of cells.
(§2) LDL internalization was measured by uptake of a fluorescently tagged LDL molecule (diI-LDL) in the absence of exogenous PCSK9 (Cnt), in the presence of exogenous PCSK9 (normal PCSK9=WT, D374Y mutant PCSK9=DY), or in the presence of PCSK9 and a tested peptide (indicated as SRX##, or SRX if a single peptide results is shown in a graph).
(§3) Cells, such as HepG2, HuH7, FL83B or a cell line transfected with a short-hairpin PCSK9 knockdown sequence such as HepG2/shPCSK9, HuH7/shPCSK9, FL83B/shPCSK9, were seeded at 2×10^4 cells/well in a 96-well plate and cultured at 37 degC in RPMI+10% FBS. After approximately 24 hours, the cell media was aspirated off and replaced with RPMI+3-5 mg/mL LPDS (Lipoprotein Deficient Serum, Millipore) media for further experimentation. Benjannet et al., “Effects of the prosegment and pH on the activity of PCSK9: evidence for additional processing events” J Biol Chem. 285(52): 40965-40978 (2010).
(§4) Peptide activity was assessed by culturing cells with: i) no SRX peptide/PCSK9 protein complex (control, Cnt); ii) PCSK9 protein; and iii) SRX peptide/PCSK9 complex. Various permutations of these experimental conditions were also used, including: i) the addition of wild type PCSK9 (WT); ii) a mutant PCSK9 (e.g., D374Y mutant PCSK9, DY); iii) various SRX peptides and/or PCSK9 at the same concentration and/or combinations; iv) various SRX peptides and/or PCSK9 at different concentrations and/or combinations; v) the use of different cells, as mentioned above, with or without a transfected short-hairpin sequence; vi) a pre-incubation of the PCSK9 and SRX peptide (e.g., 1, hour, 2 hours, 3 hours, 4 hours etc.); vii) various temperatures including, but not limited to, body temperature (e.g., 37° C.), supraphysiologic temperature (e.g., 39° C.); and viii) with/without agitation (e.g., shaker or gentle periodic vortexing).
(§5) Cells were cultured using one of the combinations of conditions described in the preceding paragraph for 16 hours. After 16 hours, a quantity of diI-LDL (Low density lipoprotein coupled with 1,1′-dioctadecyl-3,3,3′,3′-tetramethylindocarbocyanine perchlorate) needed to bring the media concentration to 5 ug/mL of diI-LDL was added to the culture well and cells continued to be cultured under these new conditions for 4 additional hours. At the end of the 4-hour incubation period (20 total hours of cell culture), the cellular uptake was halted with the addition of 4% formaldehyde in 10 uM Hoechst 33342 in a solvent such as deionized autoclaved water or PBS, and specimens were incubated at 20° C. for 20 minutes. Cell specimens were rinsed twice with PBS and then fluorescence measured with excitation at 360 nm and emission detected at 460 nm to measure DNA content. Cell specimens were then be incubated with a 0.1% SDS in a 0.1 N NaOH solution while being shaken for 10 minutes. Fluorescence of the diI-LDL in the specimens were quantified using excitation at 530 nm and resulting emission at 580 nm.
Fluorescence measurements of diI-LDLR were normalized to estimated cell numbers, determined from the Hoechst fluorescence. Data was analyzed for the different experimental conditions and reported as percentage relative fluorescence units (RFU) of the Cnt specimen. Percent inhibition was calculated as the difference in RFU of a peptide exposed specimen to the RFU of PCSK9-no peptide, divided by the RFU difference in PCSK9-no peptide to RFU of Cnt specimen, also expressed as [(SRX:RFU)−(PCSK9-no peptide:RFU)]/[(PCSK9-no peptide:RFU)−(Cnt:RFU)]×100.

PCSK9-D374Y protein = PCSK9-D374Y protein (Homo sapiens, UniProt Q8NBP7, D374Y); test: Cellular diI-LDL uptake in HuH7 cells with PCSK9-D374Y; type: cell-based; settings: HuH7, 0.5 μg/ml PCSK9-D374Y, 100 uM peptide (FIG. 3)
PCSK9-D374Y protein, sequence (Q8NBP7 153-692 D374Y): as the sequence (Q8NBP7 153-692) above, with D222Y counted along it
Description: as §1, with “0.5” for “1.0”, “PCSK9-D374Y” for “PCSK9-WT”, “(DY)” for “(WT)”
as §1, with “0.5” for “1.0”, “PCSK9 GOF-D374Y” for “PCSK9-WT”, “(DY)” for “(WT)”, “increasing concentrations” for “100 uM”
as §2, §3, §4, §5
Fluorescence measurements of diI-LDLR were normalized to estimated cell numbers, determined from the Hoechst fluorescence. […]

PCSK9-WT protein [2] = target: T1, PCSK9-WT protein; test: FACS analysis of cell surface LDLR in HuH7 cells with PCSK9-WT; type: cell-based; settings: FACS, HuH7 cells; for inhibition at 100 µM: Huh-7, peptide at 100 uM, read-out: Cell Activity of Exemplified Peptides (inhibition); for modulation of LDLR cell surface level: exogenous WT PCSK9 plus peptide (FIG. 1, 100 μM)
Description: HuH7 cells were incubated for 18 h in the absence (Cnt) or presence of 0.75 μg/ml PCSK9-WT protein alone (WT) or mixed with 100 μM of various SRX peptides. The level of LDLR at the cell surface was measured by FACS using anti human LDLR Ab and a suitable secondary Ab labeled with Alexa 647. Cell surface LDLR is reported relative to Cnt. % inhibition of activity was calculated as [SRX−WT]/[Cnt−WT]×100%.
See, FIG. 1. In that experiment, the LDLR levels of a hepatocyte culture model (HuH7 cells) were measured by fluorescence activated cell sorting (FACS) in accordance with Example III. Cell surface LDLR is reported as a percentage of Basal levels of LDLR, indicated by the Cnt_Amm.Bic, Cnt_Ac.Acid, and Cnt bars in the top graph. See, FIG. 1 (top panel). LDLR levels in the presence of exogenous PCSK9 is indicated as WT_Amm.Bic, WT-Ac.Acid, and WT, and Exogenous PCSK9 in combination with a tested peptide is indicated as SRX##. The measured LDLR levels are reported as % versus basal controls (Cnt) of the respective group. […] This was further shown a percent inhibition (% inhibition was calculated as [SRX−WT]/[Cnt−WT]×100%) where positive modulation (increase) of LDLR level is reported as positive % inhibition, and negative modulation (decrease) of LDLR level is reported as negative % inhibition. See, FIG. 1 (bottom panel).
Benjannet et al., “Effects of the prosegment and pH on the activity of PCSK9: evidence for additional processing events” J Biol Chem. 285(52): 40965-40978 (2010). The cells were then washed 3× with solution A (calcium/magnesium-free Dulbecco's PBS (Invitrogen) containing 0.5% bovine serum albumin (Sigma) and 1 g/liter glucose)). The cells were then incubated for 10 min at room temperature with 1× Versene solution (Invitrogen) followed by the addition of 5 ml of solution A. The cells were then incubated for 40 min in solution A containing a human LDLR mAb-C7 (1:100; Santa Cruz Biotechnology). Following washes, the cells were then incubated for 20 min in solution A containing a secondary antibody (Alexa Fluor 647 donkey anti-mouse antibody; 1:250; Molecular Probes).
Following suspension in PBS containing 0.2% of propidium iodide, the cells were analyzed by FACS for both propidium iodide (dead cells) and LDLR in live cells with Alexa Fluor 647 using the FACS BD LSR (BD Biosciences).

[3] = target: PCSK9-WT protein (human proprotein convertase subtilisin/kexin type 9) (human, UniProt Q8NBP7 31-692, limits assumed); test: cell-based or functional assay
PCSK9-WT protein (human proprotein convertase subtilisin/kexin type 9), sequence (Q8NBP7 31-692 limits assumed): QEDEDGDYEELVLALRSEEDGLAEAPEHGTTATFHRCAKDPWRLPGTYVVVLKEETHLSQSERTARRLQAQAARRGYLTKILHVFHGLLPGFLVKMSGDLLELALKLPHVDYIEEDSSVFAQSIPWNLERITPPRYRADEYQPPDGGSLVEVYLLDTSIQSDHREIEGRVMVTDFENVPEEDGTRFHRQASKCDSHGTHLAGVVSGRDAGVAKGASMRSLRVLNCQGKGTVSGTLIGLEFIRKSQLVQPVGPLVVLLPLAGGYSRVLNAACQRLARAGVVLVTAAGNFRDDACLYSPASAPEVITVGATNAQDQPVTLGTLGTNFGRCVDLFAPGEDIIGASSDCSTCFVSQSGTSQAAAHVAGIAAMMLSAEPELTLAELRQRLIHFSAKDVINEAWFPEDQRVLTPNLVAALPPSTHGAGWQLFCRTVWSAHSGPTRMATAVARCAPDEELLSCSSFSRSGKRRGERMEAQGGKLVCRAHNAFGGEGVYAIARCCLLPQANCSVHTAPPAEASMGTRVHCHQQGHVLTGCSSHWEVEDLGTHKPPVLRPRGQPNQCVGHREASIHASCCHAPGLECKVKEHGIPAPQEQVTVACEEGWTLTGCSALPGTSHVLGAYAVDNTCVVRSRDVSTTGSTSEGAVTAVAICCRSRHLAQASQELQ

Molecule: Thr-Leu-Hph-Thr-Trp-Ser-Ser-Ser(p) (TL[hPhe]TWSS[pS]) [Compound 6]
LDL internalization (dil-LDL % uptake vs Cnt) (PCSK9-D374Y protein): positively modulated (increased)

Molecule: CC(C)C[C@H](NC(=O)[C@@H](N)[C@@H](C)O)C(=O)N[C@@H](CSCc1ccccc1)C(=O)N[C@H](C(=O)N[C@@H](Cc1c[nH]c2ccccc12)C(=O)N[C@@H](CO)C(=O)N[C@@H](CO)C(=O)N[C@@H](COP(=O)(O)O)C(=O)O)[C@@H](C)O [Compound 3, Thr-Leu-Cys(CH2-Ph)-Thr-Trp-Ser-Ser-Ser(p)] (H-TLC(Bn)TWSS[pS]-OH)
inhibition at 100 µM (PCSK9-WT protein [2]): > 30%

Molecule: VLELYW [Compound 8]
LDL internalization (dil-LDL % uptake vs Cnt) (PCSK9-WT protein [1]): negatively modulated (decreased)

Molecule: CC(=O)N[C@@H](Cc1ccc(O)cc1)C(=O)N[C@@H](Cc1c[nH]c2ccccc12)C(=O)NCC(=O)O [Compound 14, Ac-Tyr-Trp-Gly] (Ac-Tyr-Trp-Gly-OH)
modulation of LDLR cell surface level (PCSK9-WT protein [2]): negatively modulate (decrease)
inhibition at 100 µM (PCSK9-WT protein [2]): < -30%
LDL internalization (dil-LDL % uptake vs Cnt) (PCSK9-D374Y protein): negatively modulated (decreased)

Molecule: Ac-Tyr-Trp-Gly [SRX72: Ac-Tyr-Trp-Gly]
Cell Activity of Exemplified Peptides (FACS of cell surface LDLR, HuH7/shPCSK9 cells) [3]: > 30 % inhibition below control at 100 uM

Molecule: VYVRF-{NH(cyclopentyl)} [SRX321: Val-Tyr-Val-Arg-Phe-NH(cyclopentyl)]
cell surface LDLR levels, FACS in HuH7 cells, 10 nM recombinant PCSK9 [3]: > 60 % reversal

The next lines start with the values.

LDL internalization (dil-LDL % uptake vs Cnt) (PCSK9-WT protein [1]): negatively modulated (decreased)
Molecule: Thr-Leu-Asp(NHCH2Ph)-Thr-Trp-Ser-Ser-Ser(p) (TL[Asp(NHCH2Ph)]TWSS[pS]) [Compound 4]

modulation of LDLR cell surface level (PCSK9-WT protein [2]): positively modulate (increase)
Molecule: Thr-Leu-Gly(CH2CH2cyclohexyl)-Thr-Trp-Ser-Ser-Ser(p) (TL[hCha]TWSS[pS]) [Compound 5]

modulation of LDLR cell surface level (PCSK9-WT protein [2]): negatively modulate (decrease)
Molecule: Ac-Trp-Ala-Ser(p) (Ac-Trp-Ala-[pS]) [Compound 12]

Cell Activity of Exemplified Peptides (FACS of cell surface LDLR, HuH7/shPCSK9 cells) [3]: > 30 % inhibition above control at 100 uM
Molecule: VYVRFW (not fully specified; printed as Val-Tyr-Val-Arg-Phe-Trp) [SRX55: Val-Tyr-Val-Arg-Phe-Trp]
